# Assay results: US20200277405A1, “COMPOSITION FOR ANTIBODY-DRUG CONJUGATE DIRECTED AGAINST TUMOR-CELL ASSOCIATED POLYSIALIC ACID” (Cornell University, priority 2019, published 2020)
# Assays:
# ST8SiaII KO SW2 cells = experiment: Flow cytometry binding to ST8SiaII knockout cells; format: cell-based, human
# Source text: FIGS. 8A-8C depict binding of polySia-specific mAb to ST8SiaII and ST8SiaIV knockout cell lines. […] Data are the geometric mean fluorescence intensity (MFI), with the values reported as the average of three replicates and the error represented as the standard deviation of the mean. […] In the ST8SiaII KO SW2 cells, 73% of the population (FL1-H-) binds mo735 below the level of the wild-type SW2 cells. […] In the ST8SiaIV KO SW2 cells, 68% of the population (FL1-H-) binds mo735 below the level of the wild-type SW2 cells.
# CRISPR guide RNAs targeting ST8SiaII (crRNA1: […]; SEQ ID NO: 5) and ST8Sia4 (crRNA1: […]; SEQ ID NO: 6) were purchased from Genscript in the pLentiCRISPR v2 vector. Knockout cell lines were generated in SW2 cells using protocols described by Zhang and colleagues (Shalem et al., “Genome-Scale CRISPR-Cas9 Knockout Screening in Human Cells,” Science 343:84-7 (2014), which is hereby incorporated by reference in its entirety). Briefly, after lentiviral transduction, cells were maintained under selection with 1 μg/mL puromycin for at least 14 days prior to analysis by flow cytometry.
# Cancer cells were trypsinized and collected with media, followed by three washes in PBS. […] Cells were washed three times, resuspended in 500 μL of 0.5% BSA in PBS, and analyzed on a BD FACSCalibur flow cytometer using Cell Quest Pro software (BD Biosciences).
# [1] = tested on: polySia in formalin-fixed, paraffin-embedded (FFPE) human tissue sections of SCLC; experiment: IHC of FFPE tissue sections
# Source text: FIGS. 6A-6D depict immunostaining of antibody ch735 to polySia-expressing cancer cells. […] Data are the geometric mean fluorescence intensity (MFI), with the values reported as the average of three replicates and the error represented as the standard deviation of the mean. […] Cells were stained with ch735, wheat germ agglutinin (WGA) to stain the cell membrane, and Hoescht to stain nuclei. Scale bars, 10 μm. […] Scale bars, 200 μm.
# The avidin-biotin complex (ABC) immunoperoxidase method was performed essentially as previously described (Zhang et al., “Selection of Tumor Antigens as Targets for Immune Attack Using Immunohistochemistry: I. Focus on Gangliosides,” Int. J. Cancer 73:42-9 (1997), which is hereby incorporated by reference in its entirety). Briefly, the sections were quenched with 0.1% H2O2 in PBS for 15 min, blocked with avidin and biotin reagents (Vector, Burlingame, Calif.) for 10 min each, incubated in 10% serum from which the second antibody was raised and incubated with mAb 735 at 1 μg/ml for 1 h. This concentration was selected based on strong reactivity against known positive target cells and little or no background against stroma. The sections were subsequently incubated with biotinylated secondary antibodies for 30 min, and then incubated in ABC reagent per manufacturer's protocols (ABC Kit, Vector Laboratories, PK-6102) for 30 min. […]
# [2] = biological target: embryonic brain glycopeptides; details: against embryonic brain glycopeptides (Hayrinen et al.); read-out: previously reported Kd; cited from earlier work
# [3] = tested on: polySia-negative MCF7 cells; experiment: Internalization assay, MCF7; format: cell-based, human; details: after 1 h
# Procedure: FIGS. 10A-10E depict internalization of ch735 into polySia-positive cancer cells. […] Nuclei were stained by Hoescht (blue). Scale bar, 10 Fluorescence intensity was measured across the dotted line and normalized to the maximum value in each channel. Arrows indicate regions of colocalization. […] Nuclei were stained by Hoescht. Scale bar, 10 Fluorescence intensity was measured across the dotted line and normalized to the maximum value in each channel. Arrows indicate regions of colocalization. The inset show only the ch735 and DNA channels of the boxed region. […] Scale bar, 10 Fluorescence intensity was measured across the dotted white line and normalized to the maximum value in each channel. […]
# To calculate percent internalization, pre-chilled cells were incubated with 50 nM ch735 on ice for 1 h and then washed to remove unbound antibodies. […] Cells were fixed in 2% paraformaldehyde for 20 min and then stained with AF488-labeled antibody against human IgG and analyzed by flow cytometry and FlowJo software. Receptor-antibody complex internalization was calculated using the geometric mean as percent fluorescent intensity loss at 37° C. relative to that on ice. For each sample, the geometric mean fluorescence intensity (MFI) of 10,000 cells was measured in triplicate.
molecule,measurement,setting,value
"mo735: well-known mouse-derived IgG2a monoclonal antibody 735 targeting polysialic acid (antibody, V domains shown) VH: QIQLQQSGPELVRPGASVKISCKASGYTFTDYYIHWVKQRPGEGLEWIGWIYPGSGNTKYNEKFKGKATLTVDTSSSTAYMQLSSLTSEDSAVYFCARGGKFAMDYWGQGTSVTVSS VL: DVVMTQTPLSLPVSLGDQASISCRSSQSLVHSNGNTYLYWYLQKPGQSPKPLIYRVSNRFSGVPDRFSGSGSGTDFTLKISRVEAEDLGVYFCFQGTHVPYTFGGGTRLEIK",population (FL1-H-) binding below the level of wild-type SW2 cells,ST8SiaII KO SW2 cells,73%
same,IHC staining of polySia,[1]; FFPE human SCLC tissue sections,strong staining
same,IHC staining of polySia,"[1]; adjacent normal tissue, except bronchial epithelial cells and alveolar macrophages",little to no staining
same,Kd,[2],~5 nM
"ch735: chimeric human IgG1 polySia-specific mAb made by swapping variable regions of mouse mAb 735 (antibody, V domains shown) VH: QIQLQQSGPELVRPGASVKISCKASGYTFTDYYIHWVKQRPGEGLEWIGWIYPGSGNTKYNEKFKGKATLTVDTSSSTAYMQLSSLTSEDSAVYFCARGGKFAMDYWGQGTSVTVSS VL: DVVMTQTPLSLPVSLGDQASISCRSSQSLVHSNGNTYLYWYLQKPGQSPKPLIYRVSNRFSGVPDRFSGSGSGTDFTLKISRVEAEDLGVYFCFQGTHVPYTFGGGTRLEIK",antibody internalization,[3],no internalization
